Results on one molecule are retold here after patent publication US20100240033A1 (INSTITUT NATIONAL DE LA SANTE ET DE LA RECHERCHE MEDICAL …, published 2010).

Experiment [1] concerns the target T1, human prolactin receptor mutant I76V (human, UniProt P16471 25-622).
T1 sequence: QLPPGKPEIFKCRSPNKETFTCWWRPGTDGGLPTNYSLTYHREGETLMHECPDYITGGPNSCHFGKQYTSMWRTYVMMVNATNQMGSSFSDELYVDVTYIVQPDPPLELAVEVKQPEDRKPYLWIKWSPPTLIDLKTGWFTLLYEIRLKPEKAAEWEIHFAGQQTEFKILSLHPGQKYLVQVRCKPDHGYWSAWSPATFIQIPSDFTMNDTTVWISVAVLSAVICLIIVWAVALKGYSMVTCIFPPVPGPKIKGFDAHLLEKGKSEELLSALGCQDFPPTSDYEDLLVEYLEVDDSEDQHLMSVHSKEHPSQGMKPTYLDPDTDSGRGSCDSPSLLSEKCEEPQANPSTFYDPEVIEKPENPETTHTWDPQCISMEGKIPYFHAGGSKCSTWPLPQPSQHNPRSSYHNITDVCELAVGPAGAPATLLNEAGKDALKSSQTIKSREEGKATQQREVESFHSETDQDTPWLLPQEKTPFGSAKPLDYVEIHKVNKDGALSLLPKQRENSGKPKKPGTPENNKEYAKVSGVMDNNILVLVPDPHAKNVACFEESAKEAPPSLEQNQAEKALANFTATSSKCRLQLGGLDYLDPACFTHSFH
Kind of experiment: cell-based or functional assay.

Experiment [2] deals with T2, wild-type human prolactin receptor (PRLR), isoform 1 (human, UniProt P16471 25-622).
T2 sequence: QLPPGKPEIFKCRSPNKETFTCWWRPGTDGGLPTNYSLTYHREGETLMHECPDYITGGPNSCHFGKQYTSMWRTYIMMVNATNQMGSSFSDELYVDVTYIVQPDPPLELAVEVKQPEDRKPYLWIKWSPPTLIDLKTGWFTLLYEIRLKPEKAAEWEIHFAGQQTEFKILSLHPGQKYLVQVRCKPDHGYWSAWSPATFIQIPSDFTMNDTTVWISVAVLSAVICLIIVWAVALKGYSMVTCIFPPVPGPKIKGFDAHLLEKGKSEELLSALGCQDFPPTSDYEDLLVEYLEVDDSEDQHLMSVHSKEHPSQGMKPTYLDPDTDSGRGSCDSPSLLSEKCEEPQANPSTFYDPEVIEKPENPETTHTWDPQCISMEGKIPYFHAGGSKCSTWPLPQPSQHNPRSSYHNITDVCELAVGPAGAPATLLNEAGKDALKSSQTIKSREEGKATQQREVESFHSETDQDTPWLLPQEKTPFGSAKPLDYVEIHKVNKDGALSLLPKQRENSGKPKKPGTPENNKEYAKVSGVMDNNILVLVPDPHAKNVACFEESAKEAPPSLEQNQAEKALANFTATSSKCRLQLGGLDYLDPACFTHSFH
As to the kind of experiment: cell-based or functional assay.

The target in experiment [3] is T1, human prolactin receptor mutant I76V. As to the kind of experiment: radioligand competition ([125I]-hPRL vs unlabeled hPRL) on homogenates of stably transfected HEK 293 cells, Scatchard analysis. Here is the method:
(§1) Binding affinities of mutated PRLR for hPRL were determined using cell homogenates of stably transfected HEK 293, following a procedure previously described (KINET et al., J Biol Chem, 274, 26033-26043, 1999). Briefly, recombinant hPRL, produced in bacteria E. coli using the pT7L expression vector, and purified as described previously (PARIS et al., Biotechnol Appl Biochem, 12, 436-449, 1990), was iodinated using the Iodogen method, and its specific activity was in the range of 4-5 μCi/μg. Binding assays were performed overnight at room temperature using 150-300 μg cell homogenate protein in the presence of 20,000-30,000 cpm [¹²⁵I]-hPRL and increasing concentrations of unlabeled hPRL (competitor). Scatchard analysis was performed to determine the binding affinity of mutated PRLR and the number of PRLR per cell in stable clones or populations.

In experiment [4] the target is T2, wild-type human prolactin receptor …. The description is as above. Here is the method: as §1

B1: recombinant human prolactin (hPRL) (ligand, UniProt P01236 29-227, looked up)
chain: LPICPGGAARCQVTLRDLFDRAVVLSHYIHNLSSEMFSEFDKRYTHGRGFITKAINSCHTSSLATPEDKEQAQQMNQKDFLSLIVSILRSWNEPLYHLVTEVRGMQEAPEAILSKAVEIEEQTKRLLEGMELIVSQVHPETKENEIYPVWSGLPSLQMADEESRLSAYYNLLHCLRRDSHKIDNYLKLLKCRIIHNNNC
modifications: tracer form iodinated (125I, Iodogen method); unlabeled hPRL used as competitor
notes: Recombinant hPRL from bacteria; also called WT hPRL; [125I]-hPRL
Regarding B1, in experiment [1], the “fold induction of LHRE-luciferase activity by PRL (transient transfection, HEK 293)” value stood at 5 fold. In addition, in experiment [2], the “fold stimulation of LHRE-luciferase activity induced by PRL (stable HEK 293 clones, 1 ug/ml PRL)” value was 8 fold. Also, the values for the Kd in experiment [3] and in experiment [4] were 440 pM and 640 pM, respectively.
